This passage reports Kd results from patent US20220242944A1.

What is called Kd is a measure of binding affinity in units of concentration.

In this assay the target is recombinant human PDGF-B (human) (UniProt P01127). Kind of assay: SPR (Biacore T200), antibody captured by anti-human Fc, antigen as analyte, 25 degrees C, pH 7.4, 1:1 model.
Sequence of UniProt P01127 (P01127 82-190 limits assumed): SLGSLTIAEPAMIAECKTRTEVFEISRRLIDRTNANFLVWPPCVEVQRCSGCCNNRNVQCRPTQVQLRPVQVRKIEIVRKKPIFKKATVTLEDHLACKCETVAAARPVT

B1: CPR001-GL-F1332m (antibody, V domains shown)
VH: EVQLLESGGGLVQPGGSLRLSCAASGFTFSSYAMSWVRQAPGKGLEWVSYISDDGSLKYYADSVKGRFTISRDNSKNTLYLQMNSLRAEDTAVYYCAKHPYWYGGQLDLWGQGTLVTVSS
VL: SYELTQPPSVSVSPGQTASITCSGDSLGSYFVHWYQQKPGQSPVLVIYDDSNRPSGIPERFSGSNSGNTATLTISGTQAMDEADYYCSAFTHNSDVFGGGTKLTVL
In the case of B1, the Kd stood at 0.0202 nM.

B2: CPR001GLVH/xIC17-SG181v14hk (bispecific antibody, part only; not given: IC17 control arm and constant region, V domains shown, part only)
VH: B1 VH
VL: B1 VL
As to B2, the Kd was found to be 0.0165 nM.
